Test results: PMC8406262
Blank lines part the entries; values can stand above or below the substance they belong to.

Experiments:
[1] = biological target: BonA, endogenous in A. baumannii ATCC 19606 membranes (Acinetobacter baumannii ATCC 19606 (endogenous)); test: native gel or EMSA; 5 to 16% blue-native PAGE of 50 μg total membranes solubilized in detergent, Western blot with anti-BonA antiserum
[2] = biological target: BonA, full-length soluble recombinant protein (mature, lacking its signal sequence) (Acinetobacter baumannii); test: SEC-MALS; 100 μl at 1 to 5 mg/ml on Superdex 200 10/300 GL, 20 mM Tris-200 mM NaCl pH 7.9
[3] = biological target: BonA, full-length soluble recombinant protein (mature, lacking its signal sequence) (Acinetobacter baumannii); test: AUC; sedimentation velocity, 0.25 to 2 mg/ml, 40,000 rpm, 20°C, 50 mM Tris-200 mM NaCl pH 7.9
[4] = biological target: BonA-C45, 45-aa C-terminally truncated BonA (Acinetobacter baumannii); test: SEC-MALS; 100 μl at 1 to 5 mg/ml on Superdex 200 10/300 GL, 20 mM Tris-200 mM NaCl pH 7.9

stoichiometry N [1]: 2
Substance: BonA, endogenous in A. baumannii ATCC 19606 membranes (natural protein)

stoichiometry N [2]: 10 | stoichiometry N [3]: 10
Substance: BonA, full-length soluble recombinant protein (mature, lacking its signal sequence) (natural protein)

stoichiometry N [4]: 10
Substance: BonA-C45, 45-aa C-terminally truncated BonA (domain or fragment)
